The source of these data is patent US20200317779A1.

Substitutions are numbered along the chain they refer to.

B1: D01 (antibody, human IgG1, lambda, L234A L235A, V domains shown)
VH: EVQLVESGGGLVQPGGSLKLSCAASGFTFNTYAMNWVRQASGKGLEWVGRIRSKYNNYATYYADSVKDRFTISRDDSQSTLYLQMNSLKTEDTAVYYCVRHGNFGNSYVSWFAYWGQGTLVTVSS
VL: QAVVTQEPSLTVSPGGTVTLTCRSSTGAVTTSNYANWFQQKPGQAPRTLIYGTNKRAPWTPARFSGSLLGGKAALTLSGAQPEDEAEYYCALWYSNLWVFGGGTKLTVLG
B2: D03 (antibody, human IgG1, lambda, L234A L235A, V domains shown)
VH: B1 VH
VL: B1 VL with Y51G
B3: D14 (antibody, human IgG1, lambda, L234A L235A, V domains shown)
VH: B1 VH
VL: B1 VL with F38V, T48G, G71D
B4: E06 (antibody, human IgG1, lambda, L234A L235A, V domains shown)
VH: B1 VH with G49A, Q78K, S79N, L81A
VL: B1 VL with T48G, G71D
B5: E05 (antibody, human IgG1, lambda, L234A L235A, V domains shown)
VH: B1 VH with G49A, Q78K, S79N, L81A
VL: B1 VL with T48G
B6: D09 (antibody, human IgG1, lambda, L234A L235A, V domains shown)
VH: B1 VH
VL: B1 VL with F38V
B7: E11 (antibody, human IgG1, lambda, L234A L235A, V domains shown)
VH: B1 VH with G49A, Q78K, S79N, L81A
VL: B1 VL with F38V, Y51G
B8: E01 (antibody, human IgG1, lambda, L234A L235A, V domains shown)
VH: B1 VH with G49A, Q78K, S79N, L81A
VL: B1 VL
B9: D02 (antibody, human IgG1, lambda, L234A L235A, V domains shown)
VH: B1 VH
VL: B1 VL with G71D
B10: D04 (antibody, human IgG1, lambda, L234A L235A, V domains shown)
VH: B1 VH
VL: B1 VL with Y51G, G71D
B11: E10 (antibody, human IgG1, lambda, L234A L235A, V domains shown)
VH: B1 VH with G49A, Q78K, S79N, L81A
VL: B1 VL with F38V, G71D
B12: E07 (antibody, human IgG1, lambda, L234A L235A, V domains shown)
VH: B1 VH with G49A, Q78K, S79N, L81A
VL: B1 VL with T48G, Y51G
B13: D10 (antibody, human IgG1, lambda, L234A L235A, V domains shown)
VH: B1 VH
VL: B1 VL with F38V, G71D
B14: A01 (antibody, human IgG1, lambda, L234A L235A, V domains shown)
VH: B1 VH with Q78K, S79N, L81A
VL: B1 VL
B15: D05 (antibody, human IgG1, lambda, L234A L235A, V domains shown)
VH: B1 VH
VL: B1 VL with T48G
B16: E12 (antibody, human IgG1, lambda, L234A L235A, V domains shown)
VH: B1 VH with G49A, Q78K, S79N, L81A
VL: B1 VL with F38V, Y51G, G71D
B17: A06 (antibody, human IgG1, lambda, L234A L235A, V domains shown)
VH: B1 VH with Q78K, S79N, L81A
VL: B1 VL with T48G, G71D
B18: D12 (antibody, human IgG1, lambda, L234A L235A, V domains shown)
VH: B1 VH
VL: B1 VL with F38V, Y51G, G71D
B19: D13 (antibody, human IgG1, lambda, L234A L235A, V domains shown)
VH: B1 VH
VL: B1 VL with F38V, T48G
B20: E08 (antibody, human IgG1, lambda, L234A L235A, V domains shown)
VH: B1 VH with G49A, Q78K, S79N, L81A
VL: B1 VL with T48G, Y51G, G71D
B21: E02 (antibody, human IgG1, lambda, L234A L235A, V domains shown)
VH: B1 VH with G49A, Q78K, S79N, L81A
VL: B1 VL with G71D
B22: D11 (antibody, human IgG1, lambda, L234A L235A, V domains shown)
VH: B1 VH
VL: B1 VL with F38V, Y51G
B23: E03 (antibody, human IgG1, lambda, L234A L235A, V domains shown)
VH: B1 VH with G49A, Q78K, S79N, L81A
VL: B1 VL with Y51G
B24: D06 (antibody, human IgG1, lambda, L234A L235A, V domains shown)
VH: B1 VH
VL: B1 VL with T48G, G71D
B25: E04 (antibody, human IgG1, lambda, L234A L235A, V domains shown)
VH: B1 VH with G49A, Q78K, S79N, L81A
VL: B1 VL with Y51G, G71D
B26: E09 (antibody, human IgG1, lambda, L234A L235A, V domains shown)
VH: B1 VH with G49A, Q78K, S79N, L81A
VL: B1 VL with F38V

The target of one assay is recombinant cynomolgus monkey CD3ε/δ heterodimer (cynomolgus monkey) (UniProt Q95LI5). Kind of assay: ELISA, coated CD3ε/δ.
recombinant cynomolgus monkey CD3ε/δ heterodimer (cynomolgus monkey), sequence (Q95LI5 22-117, stated change not applied, chain 1 of 2): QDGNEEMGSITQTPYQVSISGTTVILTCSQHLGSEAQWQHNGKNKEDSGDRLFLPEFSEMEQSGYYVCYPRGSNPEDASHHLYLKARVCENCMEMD
recombinant cynomolgus monkey CD3ε/δ heterodimer (cynomolgus monkey), sequence (Q95LI8 22-105, stated change not applied, chain 2 of 2, further chain): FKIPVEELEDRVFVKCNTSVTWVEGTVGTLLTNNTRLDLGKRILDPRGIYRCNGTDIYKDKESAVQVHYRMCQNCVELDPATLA
With B1, the Absorbance (450 nm) turned out to be 0.099.
Same read-out and setting: next, B2: 0.13; B3: 0.113; B4: 0.086.
The same measure, in the same setting: next, B5: 0.068; B6: 0.098; B7: 0.075.
Regarding B8, the Absorbance (450 nm) was found to be 0.078.
On the same count and under the same terms, next, B9: 0.073; B10: 0.072; B11: 0.065.
The same measure, in the same setting: next, B12: 0.115; B13: 0.113; B14: 0.098.
B15: the Absorbance (450 nm) stood at 0.101.
Still for that read-out and setting: next, B16: 0.064; B17: 0.108; B18: 0.114.
Still for that read-out and setting: next, B19: 0.532; B20: 0.099.
Same read-out and setting: next, B21: 0.07; B22: 0.134.
As for B23, the Absorbance (450 nm) came out at 0.076.
Still for that read-out and setting: next, B24: 0.11; B25: 0.067; B26: 0.084.

The target in the next assay is recombinant human CD3ε/δ heterodimer (human) (UniProt P07766). The experiment in a line: ELISA, coated CD3ε/δ.
recombinant human CD3ε/δ heterodimer (human), sequence (P07766 23-126, stated change not applied, chain 1 of 2): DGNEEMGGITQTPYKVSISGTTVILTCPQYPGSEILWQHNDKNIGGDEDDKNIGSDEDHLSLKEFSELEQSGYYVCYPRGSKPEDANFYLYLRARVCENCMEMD
recombinant human CD3ε/δ heterodimer (human), sequence (P04234 22-105, stated change not applied, chain 2 of 2, further chain): as the sequence (Q95LI8 22-105, stated change not applied, chain 2 of 2, further chain) above, with V5I, K15N, V20I, T32S, N33D, N34I, A64T, N74S, L83V counted along it
For B1, the Absorbance (450 nm) came out at 0.136.
Still for that read-out and setting: next, B2: 0.159; B3: 0.149.
B4: the Absorbance (450 nm) amounted to 0.112.
Regarding B5, the Absorbance (450 nm) turned out to be 0.085.
For the molecule B6, the Absorbance (450 nm) was 0.122.
Same read-out and setting: next, B7: 0.098; B8: 0.1; B9: 0.15.
On the same count and under the same terms, next, B10: 0.091; B11: 0.083; B12: 0.109.
Still for that read-out and setting: next, B13: 0.117.
Regarding B14, the Absorbance (450 nm) was 0.152.
As for B15, the Absorbance (450 nm) is 0.121.
On the same count and under the same terms, next, B16: 0.088; B17: 0.14; B18: 0.095.
On the same count and under the same terms, next, B19: 0.569; B20: 0.074.
On the same count and under the same terms, next, B21: 0.095; B22: 0.138.
In the case of B23, the Absorbance (450 nm) came to 0.134.
On the same count and under the same terms, next, B24: 0.136; B25: 0.087; B26: 0.096.
